We go through two proteins from doi:10.1101/2025.11.26.690709, “Domain-specific decoupling of co-chaperone and ligase functions in STUB1 underlies biochemical and clinical heterogeneity in SCA48” (bioRxiv, 2025).

The data set concerns the molecule itself. The data set is described as follows: mass photometry; Refeyn OneMP; CHIP at 50 nM final in 20 mM HEPES pH 8.0, 200 mM NaCl; self-association of CHIP (dimer, tetramer, hexamer, octamer, high MW).

B1: CHIP P228S, recombinant, C-terminal His tag (natural protein, human, UniProt Q9UNE7-1 1-303, looked up)
chain: MKGKEEKEGGARLGAGGGSPEKSPSAQELKEQGNRLFVGRKYPEAAACYGRAITRNPLVAVYYTNRALCYLKMQQHEQALADCRRALELDGQSVKAHFFLGQCQLEMESYDEAIANLQRAYSLAKEQRLNFGDDIPSALRIAKKKRWNSIEERRIHQESELHSYLSRLIAAERERELEECQRNHEGDEDDSHVRAQQACIEAKHDKYMADMDELFSQVDEKRKKRDISDYLCGKISFELMREPCITPSGITYDRKDIEEHLQRVGHFDPVTRSPLTQEQLIPNLAMKEVIDAFISENGWVEDY
notes: CHIP (STUB1), SCA48-associated U-box mutation P228S
With B1, the binding result is reported as “binds”.

B2: CHIP R225*, recombinant (natural protein, human, UniProt Q9UNE7-1 1-303, looked up)
chain: MKGKEEKEGGARLGAGGGSPEKSPSAQELKEQGNRLFVGRKYPEAAACYGRAITRNPLVAVYYTNRALCYLKMQQHEQALADCRRALELDGQSVKAHFFLGQCQLEMESYDEAIANLQRAYSLAKEQRLNFGDDIPSALRIAKKKRWNSIEERRIHQESELHSYLSRLIAAERERELEECQRNHEGDEDDSHVRAQQACIEAKHDKYMADMDELFSQVDEKRKK
Turning to B2, the “stoichiometry N” value turned out to be 2.

In general, stoichiometry N refers to a count of units in the complex or per binding partner.
